Laboratory results from patent US20190338035A1 (EUREKA THERAPEUTICS, published 2019).
Substitutions are numbered along the chain they refer to. In names and notes the source's numbering stands.

B1: Phage clone 31 (scFv)
scFv: QAVLTQPSSLSASPGASASLTCTLRSGINVGTYRIYWYQQKPGSPPQYLLRYKSDSDKQQGSGVPSRFSGSKDASANAGILLISGLQSEDEADYYCMIWHSSAWVFGGGTKLTVLGSRGGGGSGGGGSGGGGSLEMAEVQLVESGGGLVQPGGSLRLSCAASGLTFDRYAMSWVRQAAGKGLERFSAITGDGYYTYYADSVKGRFTISRDNSKNTLYLQMNSLGAEDTAVYYCARLSGIGRSSYDGWGQGTLVTVSS
notes: fusion to the phage coat protein not described
B2: WT H3.1 26-35 peptide (peptide)
peptide: RKSAPATGGV
notes: Free synthetic peptide pulsed onto T2 cells; also called H3.1 26-35 WT peptide
B3: mutant histone K27M-H3.3 26-35 peptide (peptide)
peptide: RMSAPSTGGV
notes: Free synthetic peptide pulsed onto T2 cells
B4: mutant histone K27M-H3.1 26-35 peptide (peptide)
peptide: RMSAPATGGV
notes: as for B3
B5: Phage clone 10 (scFv)
scFv: EIVLTQSPLSLPVTLGQPASISCRSSQSLVYSNGNTYLSWFHQRPGQSPRRLIYKVSKRDSGVPDRFSGSGSGTDFTLKISRVEAEDVGVFYCMQGTYWPYTFGQGTKLEIKRSRGGGGSGGGGSGGGGSLEMAEVQLVQSGAEVKKPGESLKISCKGSGYSFTSYWIGWVRQMPGKGLEWMGIIYPGDSDTRYSPSFQGQVTISADKSISTAYLQWSSLKASDTAMYYCARGFDNWGQGTLVTVSS
notes: as for B1
B6: Phage clone 13 (scFv)
scFv: DVVMTQSPLSLPVTLGQPASISCRSSQSLIYSNGNTYLTWFHQRPGQPPRRLIHKVSNRDSGVPDRFSGSGSGSDFTLKISRVEAEDVGIYYCMQGTHWPPTFGGGTKLEIKRSRGGGGSGGGGSGGGGSLEMAEVQLVQSGAEVKKPGESLKISCKGSGYSFTSYWIGWVRQMPGKGLEWMGIIYPGDSDTRYSPSFQGQVTISADKSISTAYLQWSSLKASDTAMYYCARGYDVWGQGTLVTVSS
notes: as for B1
B7: Phage clone 16 (scFv)
scFv: B6 scFv with V236S
notes: as for B1
B8: Phage clone 5 (scFv)
scFv: B6 scFv with I30V, T39N, P48S, H54Y, K55E, S74T, I90V, V236G
notes: fusion to the phage coat protein not described; also called anti-HMC scFv 5
B9: Phage clone 38 (scFv)
scFv: SYELTQPPSVSVAPGKTARITCGGNNIGSKSVNWYQQKPGQAPVLVIYYDNDRPSGIPERFSGSNSGNTATLTISRVEAGDEADYYCQVWNSSSDHYVFGTGTKVTVLGSRGGGGSGGGGSGGGGSLEMAQMQLVQSGAEVKTTGASVRVSCKASGYTFTDYYLHWVRQAPGQGLEWMGWINPHSGGTNYAQKFQGRVTMTRDTSISTAYMELSSLRSDDTAVYYCAREDYSGSGSSDAWGQGTLVTVSS
notes: as for B1
B10: Phage clone 34 (scFv)
scFv: QSVLTQPPSVSGAPGQRVTISCTGSSLNLGAGYDVHWYQQFPGTAPKLLIFANTNRPSGVPDRFSASKSGTSASLAITGLQAEDEADYFCQSYDNSLSGYVFGTGTKVTVLGSRGGGGSGGGGSGGGGSLEMAQVQLVQSGAEVKKPGSSVKVSCKASGGTFSSYAISWVRQAPGQGLEWMGGIIPIFGTANYAQKFQGRVTITADESTSTAYMELSSLRSEDTAVYYCARSYWTFEYSIDSWGQGTLVTVSS
B11: Phage clone 35 (scFv)
scFv: SYVLTQPPSASGTPGQRVTISCSGSTFNIGSNTVNWYQQLPATAPKLLIYSNNQRPSGVPDRFSGSKSGTSASLAISGLQSEDAAAYYCAAWDDSLSGHVVFGGGTKLTVLGSRGGGGSGGGGSGGGGSLEMAEVQLVQSGAEVKKPGASVKVSCKASGYTFTSYGISWVRQAPGQGLEWMGWISAYNGNTNYAQKLQGRVTMTTDTSTSTAYMELRSLRSDDTAVYYCARYYESGYPFDWWGQGTLVTVSS
B12: Phage clone 36 (scFv)
scFv: SSELTQDPAVSVALGQTVRITCQGDSLRSYYANWYQQKPGQAPVLVIYAKSNRPSGIADRFSGSSSGNTASLTITGAQAEDEADYYCNSRDSSGNRWVFGGGTKVTVLGSRGGGGSGGGGSGGGGSLEMAEVQLVQSGAEVKKPGASVKVSCKASGYTFTGYYMHWVRQAPGKGLEWMGGFDPEDGETIYAQKFQGRVTMTEDTSTDTAYMELSSLRSEDTAVYYCARSSWWSPVTYYDIWGQGTLVTVSS
notes: as for B1
B13: Phage clone 33 (scFv)
scFv: QSVLTQPPSVSGAPGQRVTIFCTGSSSNIGAGYDVHWYQQLPGTAPKLLIYGNNNRPSGVPDRFSGSKSGTSASLAITGLQAEDEADYYCQSYDTSLTPVFGGGTKLTVLGSRGGGGSGGGGSGGGGSLEMAEVQLVQSGAEVRKPGSSVKVSCKASAGTFNRYSLSWVRQAPGQGLEWVGRIIPIIGVADYAQKFQGRVTITADKSATTAYMELHSLRSEDTAVYYCARQEYSYAMDYWGQGTLVTVSS
notes: as for B1
B14: Phage clone 32 (scFv)
scFv: QSVLTQPPSVSGAPGQRVTISCTGSSSNLGAGYDVHWYQQLPGTAPKVLVYFNNNRPSGVPDRFSGSKSGTSASLAITGLQAEDEADYYCQSYDSSLSASVFGTGTKVTVLGSRGGGGSGGGGSGGGGSLEMAQVQLVESGAEVKKPGASVKVSCKASGYTFTSYTITWVRQAPGQGLEWMGWISPYNGNTNYAQNLQGRVTMTTDTSTTTAYMELRSLTSDDTAVYYCARSWEHGFPYDEWGQGTLVTVSS

Each binder was assayed against T1, HLA-A*02:01 on T2 cells without peptide loading (human) (assay: flow cytometry, scFv phage on T2 cells).
T1 construct: whole, on cells; TAP-deficient T2 cells with no exogenous peptide

Q: Does B1 bind?
A: no binding

The binders below were run against T1, HLA-A*02:01 on T2 cells without peptide … (assay: T2 stabilisation assay, BB7.2 staining, flow cytometry).

Q: Does B2 bind?
A: binds

Q: Does B3 bind?
A: binds

Q: Does B4 bind?
A: binds

What follows are binders tested against T2, control peptide mixture P20/HLA-A*02:01 complexes on T2 cells (human) (assay: flow cytometry, scFv phage on T2 cells, anti-M13 + PE anti-mouse IgG).
T2 construct: whole, on cells; A pool of 20 different peptide/HLA-A*02:01 complexes on one cell population, not a single complex; also called T2-P20

Q: B5 was tested. Which “Median MFI (PE-A)” value did it give?
A: 2010 MFI

Q: For B1, which “Median MFI (PE-A)” value is on record?
A: 128 MFI

Q: B6 was tested. Which “Median MFI (PE-A)” value did it give?
A: 1560 MFI

Q: For B7, which “Median MFI (PE-A)” value is on record?
A: 4190 MFI

Q: Which “Median MFI (PE-A)” value does the source give for B8 here?
A: 703 MFI

What follows are binders tested against T3, WT H3.1 26-35 peptide/HLA-A*02:01 complex on T2 cells (human) in the same assay as above.
T3 construct: whole, on cells; T2 cells pulsed with the synthetic peptide; also called T2-WT H3.1; T2-WT 3.1

Q: For B5, which “Median MFI (PE-A)” value is on record?
A: 770 MFI

Q: How did the “Median MFI (PE-A)” value turn out when B1 was run?
A: 529 MFI

Q: For B6, which “Median MFI (PE-A)” value is on record?
A: 761 MFI

Q: For B7, which “Median MFI (PE-A)” value is on record?
A: 2320 MFI

Q: For B8, which “Median MFI (PE-A)” value is on record?
A: 320 MFI

What follows are binders tested against T4, WT H3.3 26-35 peptide/HLA-A*02:01 complex on T2 cells (human) in the same assay as above.
T4 construct: whole, on cells; T2 cells pulsed with the synthetic peptide; also called T2-WT H3.3; T2-WT 3.3

Q: Which “Median MFI (PE-A)” value does the source give for B5 here?
A: 849 MFI

Q: With B1 as the binder, how does the “Median MFI (PE-A)” value read?
A: 777 MFI

Q: With B6 as the binder, how does the “Median MFI (PE-A)” value read?
A: 784 MFI

Q: Which “Median MFI (PE-A)” value does the source give for B7 here?
A: 2440 MFI

Q: B8 was tested. Which “Median MFI (PE-A)” value did it give?
A: 305 MFI

The binders below were run against T1, HLA-A*02:01 on T2 cells without peptide … in the same assay as above.

Q: How did the “Median MFI (PE-A)” value turn out when B5 was run?
A: 686 MFI

Q: For B1, which “Median MFI (PE-A)” value is on record?
A: 125 MFI

Q: For B6, which “Median MFI (PE-A)” value is on record?
A: 543 MFI

Q: B7 was tested. Which “Median MFI (PE-A)” value did it give?
A: 1700 MFI

These binders were tested against T2, control peptide mixture P20/HLA-A*02:01 … (assay: flow cytometry, scFv phage on T2 cells, anti-M13 + labelled anti-mouse IgG).

Q: B9 was tested. Which “Median MFI (PE-A)” value did it give?
A: 128 MFI

Q: How did the “Median MFI (PE-A)” value turn out when B10 was run?
A: 109 MFI

Q: For B11, which “Median MFI (PE-A)” value is on record?
A: 124 MFI

Q: Which “Median MFI (PE-A)” value does the source give for B12 here?
A: 11000 MFI

Q: With B13 as the binder, how does the “Median MFI (PE-A)” value read?
A: 2860 MFI

Q: How did the “Median MFI (PE-A)” value turn out when B14 was run?
A: 146 MFI

What follows are binders tested against T4, WT H3.3 26-35 peptide/HLA-A*02:01 … in the same assay as above.

Q: For B9, which “Median MFI (PE-A)” value is on record?
A: 32900 MFI

Q: How did the “Median MFI (PE-A)” value turn out when B10 was run?
A: 8340 MFI

Q: For B11, which “Median MFI (PE-A)” value is on record?
A: 84200 MFI

Q: B12 was tested. Which “Median MFI (PE-A)” value did it give?
A: 33600 MFI

Q: B13 was tested. Which “Median MFI (PE-A)” value did it give?
A: 49100 MFI

Q: B14 was tested. Which “Median MFI (PE-A)” value did it give?
A: 90800 MFI

The binders below were run against T1, HLA-A*02:01 on T2 cells without peptide … in the same assay as above.

Q: Which “Median MFI (PE-A)” value does the source give for B9 here?
A: 66 MFI

Q: How did the “Median MFI (PE-A)” value turn out when B10 was run?
A: 109 MFI

Q: For B11, which “Median MFI (PE-A)” value is on record?
A: 125 MFI

Q: For B14, which “Median MFI (PE-A)” value is on record?
A: 132 MFI
